Test results from article PMC4605309.
Read-outs that look alike come from different tables or passages of the source.

Legend:
Smad5 MH1 [1] = target: T1, Smad5 MH1 (Mus musculus, UniProt P97454 1-143); test: EMSA
Smad5 MH1 [2] = target: T1, Smad5 MH1; test: EMSA; remark: listed apart in the source

T1 sequence (P97454 1-143): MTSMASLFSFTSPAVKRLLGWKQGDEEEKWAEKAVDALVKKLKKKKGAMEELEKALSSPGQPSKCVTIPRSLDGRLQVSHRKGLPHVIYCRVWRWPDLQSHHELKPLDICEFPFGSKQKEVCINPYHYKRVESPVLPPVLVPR

Binder | binding result (Smad5 MH1 [1]) | binding result (Smad5 MH1 [2])
Id2 promoter DNA (dsDNA) DNA 1: CCTGGCGCCAGAGAGTCTGC DNA 2: GCAGACTCTCTGGCGCCAGG | binds | –
Smad7 promoter DNA (dsDNA) DNA 1: CCAGCCAGCCAGCCGGCGCCAC DNA 2: GTGGCGCCGGCTGGCTGGCTGG | – | binds
Bambi enhancer DNA (dsDNA) DNA 1: AGTGTCGTCTCGTTGGCGCCGGGTGC DNA 2: GCACCCGGCGCCAACGAGACGACACT | – | binds
